Experiment: soluble on expression in E. coli; label from the status in PepcDB or PDB records

| Sequence | soluble on expression in E. coli |
| --- | --- |
| MPALPPVYTPSGAPSSVHAPPAVPPVPVPTQPLRSEYQTSNDACIKRLEELNIAPAAKLYPTPTEPGKCGVEAEIQTNVFGIEMHQDSLFYQYSVNITTELKNGKEVTFTKKGKDDFVVTERHDKCCAILFRALGDYEEFFKTSDSCLIYDGQSILFSNVDLFQGFREGAVKTKYMQLDGGEMDHKDLKSLPCIKLEVFPTKNPAVKFTREAVARRATDSNLDSVSLAYQQILELALTQPCLRNTARYVVFDHGKMFFIDPLGEGFEKCDVVDVGDGKQVVPGLKKTINFIEGPYGRGRSNPSVVIDGMKVAFHKNQPILDKLKEITTQPVEHGLKGLEKDRCAAVIKGLDCYSTYGGRERHHKIEGIHHEGARNARFELNDGGSCTVAQYFEDVYNITLRYPDTNLIVSKERGNINFYPMELLKISSHQRVQIPQLTSAQSQKTTKESAVLPDVRQRLILTGKNAAQISSDNEVLGKMGVSVCEDPLMVKGRSIPAVKLANAEIGANPINVKDNKWRANRFTRPATAPNVWAMYVVGTASTRITLDTLKKFADEFAAMCKSKGVNMPAPADISLIHMDAIESRLYDATKANCTFVFIITDDSITTLHQRYKMIEKDTKMIVQDMKLSKALSVINAGKRLTLENVINKTNVKLGGSNYVFVDAKKQLDSHLIIGVGISAPPAGTKYAMENKGVLNPNVIGYAYNAQHNQEFSGDFVLNSASQDTLAPIEDIVMHSLNEYQKFHDGGLPRRVIVYRTGTSEGNHGSIMAYEIPLARAAMRDFSPDIQLVYIVVSKDHSFRFFKPDLASLASRPQATSSTASRHSAMPAAPKAWDLNIAPGILVDSIVTNPACKQFFLNSHITLQGTAKTPLYTVLADDAKVSMTALEDITYKLCHLHQIVGLPTSLPTPLYVANEYAKRGRNLWNEAVALNNVPTVSGPEADRLKELTKSICYKASGDLTGRRVNA | not soluble |
| MGSDKIHHHHHHMKVKKWVTQDFPMVEESATVRECLHRMRQYQTNECIVKDREGHFRGVVNKEDLLDLDLDSSVFNKVSLPDFFVHEEDNITHALLLFLEHQEPYLPVVDEEMRLKGAVSLHDFLEALIEALAMDVPGIRFSVLLEDKPGELRKVVDALALSNINILSVITTRSGDGKREVLIKVDAVDEGTLIKLFESLGIKIESIEKEEGF | soluble |
| MIKEFCAENLTLLPTLDAGQISRVELCDNLAVGGTTPSYGVIKEACQLLHDKKISVATMIRPRGGDFVYNDLELKAMEEDILKAVEAGSDALVLGLLTTENQLDTDAIEQLLPATQGLPLVFHMAFDRIPTDHQHQALDQLIDYGFVRVLTHGSPEATPITDNVEQLKSLVTYANKRIEIMIGGGITAENCQSLSQLTGTAIVHGTKII | not soluble |
| MKSDWSTDFFHQSQTPNPYPPIVQQQQQPPHTSSSFFNTNHQLNSHYSSPIHQPPTSLHQPIPMMQNQFKASPPQSDQETAPTTPGSGSGGQMKGERCVGCGSESAIRVHYGASSCHGCKAFFRRSVFEGRVYMCSADNHCDITNESRNRCRACRLRNCLEGGMNPKHVREERSKIERMPGNTCTVSAANGVSHSSSAASASPEHKFSFSLSTIAPSTSTGSFSSGSQPAPIESTNSSGSEAEVLDRKLIQENQLTLFMVALEKQTEQLTDDDVKDNDVMGAWSRDITLTFGLQHPQMVIKRLPLKYSCDRIMEAADLYLSWYRSFVFAADWAMGIPEFRVLPLADQTTLFKQNFMAFGWITFAYKCFELKQHLTGMPLGNGAYIPYNDEDQKKLPERWAQTYGVVCRKLIDLIVKAMIELQITEEEYCLIKTISLFQQDCILSEAGQGICSRMRDRLLDALSAHIEKRYPYHTTSQRMTRALKISLMLPSFSHIGQVESTLITQLTAADLHQLSGVPMEICTAQTTL | not soluble |
| MGSDKIHHHHHHGDWLNLNPSTSVTTPQAIRTLEEAQIALNGIYRIAASHSYYGDNYLYYADCRGEDVQARVSKGAGKRVSPYYEFNVTADDALNITRVWNQPYSVIHQANSLLERIESGAVVTDDAVALNCIKAEALALRGLALFDLTRLFAMPYTLNNGTSLGVPIEIKTTLPTHQPARNTVAECYQQVIDDMTGALKLSALSADKKNGYLNVWSVKALLSRVYLYMNDNEKALALAKEVMNNGGLYQLFTHDEYPTVWGKDFSSESLFEFYYTLSEPDGGTGGEGAPMVYADNVKDWNNLVLTKAFLDLLGEDPDDVRHSLNRLPEKPEEDILPEGSKGYPKYLNKYPGKTGDNPQDNDICIIRLSEVYLNAAEAAFKLGGAENLKFSLDCLNAIVSRANPVKSVKETELSLERILKERRKELVGEGHAFFDAMRNGLSVSRTGGWHLPSVAAAAVISPSDPRVALPIPQAEIDANPNMVQNPH | not soluble |
| KSIRLAKEKESQADYISTYVEWQYIDKNITQCFDKMTNMKLEVAWKAKKKDTVVQIHNQDFTVDLSTNTATAPQGQTFTVQRLVKA | soluble |
| MSLIKVPCMQITNMHCSGQTVSLAAGDYHATIVTVGAGLAELTFQGCHLVIPHKPEEMPLAHLGKVLIPWPNRIANGCYRYQGQEYQLPINEHSSKAAIHGLLAWRDWQISELTATSVTLTAFLPPSYGYPFMLASQVVYSLNAHTGLSVEIASQNIGTVAAPYGVGIHPYLTCNLTSVDEYLFQLPANQVYAVDEHANPTTLHHVDELDLNFTQAKKIAATKIDHTFKTANDLWEMTITHPQQALSVSLCSDQLWVQVYSGEKLQRQGLAVEPMSCPPNAFNSGIDLLLLESGKPHRLFFNIYGQRKMGHHHHHHSH | not soluble |
| MGSDKIHHHHHHMKELIRKLTEAFGPSGREEEVRSIILEELEGHIDGHRIDGLGNLIVWKGSGEKKVILDAHIDEIGVVVTNVDDKGFLTIEPVGGVSPYMLLGKRIRFENGTIGVVGMEGETTEERQENVRKLSFDKLFIDIGANSREEAQKMCPIGSFGVYDSGFVEVSGKYVSKAMDDRIGCAVIVEVFKRIKPAVTLYGVFSVQEEVGLVGASVAGYGVPADEAIAIDVTDSADTPKAIKRHAMRLSGGPALKVKDRASISSKRILENLIEIAEKFDIKYQMEVLTFGGTNAMGYQRTREGIPSATVSIPTRYVHSPSEMIAPDDVEATVDLLIRYLGA | soluble |
| QKSNRKDYSLTMQSSVTVQEGMCVHVRCSFSYPVDSDTDSDPVHGYWFRAGNDISWKAPVATNNPAWAVQEETRDRFHLLGDPQTKNCTLSIRDARMSDAGRYFFRMEKGNIKWNYKYDQLSVNVTALTHRP | soluble |
| SERGDQPKRTRNENIFNCLYKNPEATFKLICFPWMGGGSTHFAKWGQDTHDLLEVHSLRLPGRESRVEEPLENDISQLVDEVVCALQPVIQDKPFAFFGHSMGSYIAFRTALGLKENNQPEPLHLFLSSATPVHSKAWHRIPKDDELSEEQISHYLMEFGGTPKHFAEAKEFVKQCSPIIRADLNIVRSCTSNVPSKAVLSCDLTCFVGSEDIAKDMEAWKDVTSGNAKIYQLPGGHFYLLDPANEKLIKNYIIKCLEVSSISNF | soluble |
| ADQPIDADVTVIGSGPGGYVAAIKAAQLGFKTVCIEKNETLGGTCLNVGCIPSKALLNNSHYYHMAHGTDFASRGIEMSEVRLNLDKMMEQKSTAVKALTGGIAHLFKQNKVVHVNGYGKITGKNQVTATKADGGTQVIDTKNILIATGSEVTPFPGITIDEDTIVSSTGALSLKKVPEKMVVIGAGVIGVELGSVWQRLGADVTAVEFLGHVGGVGIDMEISKNFQRILQKQGFKFKLNTKVTGATKKSDGKIDVSIEAASGGKAEVITCDVLLVCIGRRPFTKNLGLEELGIELDPRGRIPVNTRFQTKIPNIYAIGDVVAGPMLAHKAEDEGIICVEGMAGGAVHIDYNCVPSVIYTHPEVAWVGKSEEQLKEEGIEYKVGKFPFAANSRAKTNADTDGMVKILGQKSTDRVLGAHILGPGAGEMVNEAALALEYGASCEDIARVCHAHPTLSEAFREANLAASFGKSINF | soluble |
| MAHHHHHHMDHRRSGLVLSLRYRCDGPVGTVETRRLTHVGTRSRARSAELARVRRALLVLLLPQRMKGLGQRLGDIRPREREGPGCRAQPWRASVVPRPARASLPPPKASGCFYAVHHHDKSSRLSVTATTAHDSSMRAPPSSVLRWTFTCVSSPRSTTAAAQTYHRPLHHPSQGFTTPRGRGRSAIHTHTHTHTHTHTHTHTHTHTHTRLSFNVRGPCEEHPHAPAACCIPLFLCCDAPAVSAAAAMSLQVNLLNNTFANPFMNAAGVMCTTTEELVAMTESASGSLVSKSCTPALREGNPTPRYQALPLGSINSMGLPNNGFDFYLAYAAEQHDYGKKPLFLSMSGLSMRENVEMCKRLAAVATEKGVILELNLSCPNVPGKPQVAYDFDAMRQCLTAVSEVYPHSFGVKMPPYFDFAHFDAAAEILNEFPKVQFITCINSIGNGLVIDAETESVVIKPKQGFGGLGGRYVLPTALANINAFYRRCPGKLIFGCGGVYTGEDAFLHVLAGASMVQVGTALQEEGPSIFERLTSELLGVMAKKRYQTLDEFRGKVRTLDGTAESTR | not soluble |

— the DeepSol protein solubility set
